Assay results from article PMC2884007.

Experiments:
[1] = biological target: Mimivirus cyclophilin (mimicyp), full length wild type (Mimivirus) (UniProt Q5UP71); assay: crystal structure
[2] = biological target: Mimivirus cyclophilin (mimicyp), full length wild type (Mimivirus) (UniProt Q5UP71); assay: SEC + other: NMR

Mimivirus cyclophilin (mimicyp), full length wild type (from UniProt Q5UP71 1-234) (natural protein)
stoichiometry N [1]: 3
Kd [2]: 50 to 500 µM
